The values that follow come from PMC10567853, “USP1 promotes cholangiocarcinoma progression by deubiquitinating PARP1 to prevent its proteasomal degradation” (Cell Death & Disease, 2023).

Where a chain is given by its changes, count along the chain named.

The test has as its target T1, Myc-tagged full-length (FL) PARP1 (UniProt P09874 1-1014).
T1 construct: also called Myc-PARP1
Kind of test: pull-down; GST, GST-USP1 or GST-USP1 C90S coupled to glutathione-Sepharose beads, incubated with purified Myc-PARP1; 50 mM Tris-HCl, 200 mM NaCl, 1 mM EDTA, 1% NP-40, 1 mM DTT, 10 mM MgCl2, pH 8.0; 4 °C, 4 hours. The note with it: both partners purified.

T1 sequence (P09874 whole entry): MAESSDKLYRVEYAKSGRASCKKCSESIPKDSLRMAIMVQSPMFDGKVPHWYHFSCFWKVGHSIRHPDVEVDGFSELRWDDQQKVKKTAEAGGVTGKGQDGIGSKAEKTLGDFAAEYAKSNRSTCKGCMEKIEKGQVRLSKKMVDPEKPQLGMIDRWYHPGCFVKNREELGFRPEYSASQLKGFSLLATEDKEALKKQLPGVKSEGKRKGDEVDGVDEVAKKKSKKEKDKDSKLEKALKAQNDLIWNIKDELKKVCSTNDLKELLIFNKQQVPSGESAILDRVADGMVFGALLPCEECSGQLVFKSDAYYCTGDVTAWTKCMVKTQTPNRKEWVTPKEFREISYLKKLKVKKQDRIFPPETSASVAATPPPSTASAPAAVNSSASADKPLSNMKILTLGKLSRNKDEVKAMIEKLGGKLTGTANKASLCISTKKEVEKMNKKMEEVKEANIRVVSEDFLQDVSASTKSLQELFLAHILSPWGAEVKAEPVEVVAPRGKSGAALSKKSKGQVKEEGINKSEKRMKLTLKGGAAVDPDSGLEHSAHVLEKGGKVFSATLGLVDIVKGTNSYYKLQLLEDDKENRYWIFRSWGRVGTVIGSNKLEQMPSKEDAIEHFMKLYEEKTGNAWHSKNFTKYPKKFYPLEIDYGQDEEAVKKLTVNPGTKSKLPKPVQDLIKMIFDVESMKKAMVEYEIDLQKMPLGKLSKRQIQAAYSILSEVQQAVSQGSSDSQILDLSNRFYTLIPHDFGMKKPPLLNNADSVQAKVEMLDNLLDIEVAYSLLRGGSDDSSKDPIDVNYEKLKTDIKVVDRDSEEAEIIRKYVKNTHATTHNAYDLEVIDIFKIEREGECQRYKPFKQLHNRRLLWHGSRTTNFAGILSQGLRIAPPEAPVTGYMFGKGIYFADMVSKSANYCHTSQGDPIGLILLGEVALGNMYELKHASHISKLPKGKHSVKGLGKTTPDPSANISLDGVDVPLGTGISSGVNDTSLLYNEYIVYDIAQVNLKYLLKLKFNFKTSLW

B1: GST-USP1 (enzyme, UniProt O94782 1-785, looked up)
chain: MPGVIPSESNGLSRGSPSKKNRLSLKFFQKKETKRALDFTDSQENEEKASEYRASEIDQVVPAAQSSPINCEKRENLLPFVGLNNLGNTCYLNSILQVLYFCPGFKSGVKHLFNIISRKKEALKDEANQKDKGNCKEDSLASYELICSLQSLIISVEQLQASFLLNPEKYTDELATQPRRLLNTLRELNPMYEGYLQHDAQEVLQCILGNIQETCQLLKKEEVKNVAELPTKVEEIPHPKEEMNGINSIEMDSMRHSEDFKEKLPKGNGKRKSDTEFGNMKKKVKLSKEHQSLEENQRQTRSKRKATSDTLESPPKIIPKYISENESPRPSQKKSRVKINWLKSATKQPSILSKFCSLGKITTNQGVKGQSKENECDPEEDLGKCESDNTTNGCGLESPGNTVTPVNVNEVKPINKGEEQIGFELVEKLFQGQLVLRTRCLECESLTERREDFQDISVPVQEDELSKVEESSEISPEPKTEMKTLRWAISQFASVERIVGEDKYFCENCHHYTEAERSLLFDKMPEVITIHLKCFAASGLEFDCYGGGLSKINTPLLTPLKLSLEEWSTKPTNDSYGLFAVVMHSGITISSGHYTASVKVTDLNSLELDKGNFVVDQMCEIGKPEPLNEEEARGVVENYNDEEVSIRVGGNTQPSKVLNKKNVEAIGLLGGQKSKADYELYNKASNPDKVASTAFAENRNSETSDTTGTHESDRNKESSDQTGINISGFENKISYVVQSLKEYEGKWLLFDDSEVKVTEEKDFLNSLSPSTSPTSTPYLLFYKKL
notes: Coupled to glutathione-Sepharose beads in the pull-down; also called recombinant GST-USP1; source: E. coli BL21 (DE3), purified (GST-tag purification resin)
As for B1, the binding result is “binds”.

B2: GST-USP1 C90S (enzyme, UniProt O94782 1-785, looked up)
chain: B1 chain with C90S
notes: Coupled to glutathione-Sepharose beads in the pull-down; source: E. coli BL21 (DE3), purified (GST-tag purification resin)
For B2, the binding result is recorded as “binds”.
